These results are taken from publication PMC9602339, “Diaminopimelic Acid Metabolism by Pseudomonadota in the Ocean” (Microbiology Spectrum, 2022).

Substrate in series [1]: NC(CCCC(N)C(=O)O)C(=O)O
Nature of the series: initial rates, Lys production by amino acid analyzer; nonlinear Michaelis-Menten fit. It counts as biochemical, Halomonas sp. A40-4. Conditions: 0 to 12 mM DAP, 200 mM Tris-HCl pH 8.0, PLP (100 mM [sic]), 25°C, DAP stereoisomer not given. From the text: initial rates, Lys production by amino acid analyzer; nonlinear Michaelis-Menten fit on LysA (DAP decarboxylase) from strain A40-4

Substrate in series [2]: NC(CCCC(N)C(=O)O)C(=O)O
The description is as above. In kind it is biochemical, Thalassospira sp. A40-3. Conditions: 0 to 12 mM DAP, 200 mM Tris-HCl pH 8.0, PLP (100 mM [sic]), 25°C, DAP stereoisomer not given. An excerpt: initial rates, Lys production by amino acid analyzer; nonlinear Michaelis-Menten fit on LysA (DAP decarboxylase) from strain A40-3

B1: LysA (DAP decarboxylase) from strain A40-4 (Halomonas sp. A40-4) (protein)
chain: MDHFNDRDGLLFAEDVPLDRIAETYGTPCYVYSKATLTRHFRAYTEALGGHPHLICYAVKANSNLAVLGLLAKLGAGFDIVSVGELERVLKAGGDPDKVVFSGVAKQPHEMARALEVGIKCFNVESRPELERLNAVAGELGKMAPVSLRVNPDVDAGTHPYISTGLKDNKFGIPVDDALTVYELAASLPNLQVKGLDCHIGSQLTETAPFLDALERLLVLMERLRERGIEIDHLDLGGGLGVPYRDETPPHPFDYASQLLSRLSRWEGGEQLTLLFEPGRSIAANAGIMLTRVEFLKPGETKNFAIVDAAMNDLIRPALYQAWQAIVPVDTRSARETSIYDVVGPVCETGDFLGQERELAIAAGDLLAVRSAGAYGFVMASNYNSRPRPAEVMVDGERCHLVRARETLESLWSGEALLPEGGC
notes: lysA complementation fragment 1,272 bp
Take B1: in series [1], the Km amounted to 0.72 ± 0.14 mM, the maximal velocity (Vmax) was determined as 58.3 µmol/min/mg and the kcat came out at 41.6 ± 0.88 s⁻¹.

B2: LysA (DAP decarboxylase) from strain A40-3 (Thalassospira sp. A40-3) (protein)
chain: MNHFEYINSELYAEGVSIREMADKVGTPFFCYSTATLERHYKVYADAFDGLDATVCFAVKANSNQAVLKTLANLGAGADVVSVGEMRRALRAGMPPAKIIFSGVGKADAEMREALDADIAQINVESIPELVELNRVAIDMGKKARIALRVNPHVDAKTHEKIATGKAENKFGIDWTRAIEVYREAAAMDGIEVTGIAMHIGSQLTDLAPFREAFTRLAGLVEQLRSEGIDIRNLDLGGGLGIAYQGETPPLPDAYGQMVRETVGHLGCHITLEPGRLIAGNAGIMVSRVMYIKDGEAKRFVILDAAMNDLIRPTLYGAYHEIIPVDEQTDGDKQVKVDVVGPVCETGDTFGKDRDLPDDLKAGDLVAVMSAGAYGAVMSSTYNTRALTPEVLVKGNNFAIVRPRQEIDDLINMDLVPSWLSNA
notes: full length 423 residues
Regarding B2, in series [2], the Km was 1.89 ± 0.34 mM, the maximal velocity (Vmax) turned out to be 37.7 µmol/min/mg and the kcat came to 26.9 ± 2.42 s⁻¹.

By Km is commonly meant the substrate concentration at which the rate is half of its maximum. One may read the Vmax as the top rate of the reaction or transport when substrate is in excess. As usually defined, the kcat is the maximal rate divided by the concentration of active sites.
